Source: patent publication US20260250421A1 (BIOCYTOGEN PHARMACEUTICALS BEIJING, published 2026)
Where a chain is given by its changes, count along the chain named.

T1: His-tagged human PTK7 protein (human, UniProt Q13308 31-704)
T1 construct: Bought protein; also called hPTK7-His; not shown: His tag
T1 sequence: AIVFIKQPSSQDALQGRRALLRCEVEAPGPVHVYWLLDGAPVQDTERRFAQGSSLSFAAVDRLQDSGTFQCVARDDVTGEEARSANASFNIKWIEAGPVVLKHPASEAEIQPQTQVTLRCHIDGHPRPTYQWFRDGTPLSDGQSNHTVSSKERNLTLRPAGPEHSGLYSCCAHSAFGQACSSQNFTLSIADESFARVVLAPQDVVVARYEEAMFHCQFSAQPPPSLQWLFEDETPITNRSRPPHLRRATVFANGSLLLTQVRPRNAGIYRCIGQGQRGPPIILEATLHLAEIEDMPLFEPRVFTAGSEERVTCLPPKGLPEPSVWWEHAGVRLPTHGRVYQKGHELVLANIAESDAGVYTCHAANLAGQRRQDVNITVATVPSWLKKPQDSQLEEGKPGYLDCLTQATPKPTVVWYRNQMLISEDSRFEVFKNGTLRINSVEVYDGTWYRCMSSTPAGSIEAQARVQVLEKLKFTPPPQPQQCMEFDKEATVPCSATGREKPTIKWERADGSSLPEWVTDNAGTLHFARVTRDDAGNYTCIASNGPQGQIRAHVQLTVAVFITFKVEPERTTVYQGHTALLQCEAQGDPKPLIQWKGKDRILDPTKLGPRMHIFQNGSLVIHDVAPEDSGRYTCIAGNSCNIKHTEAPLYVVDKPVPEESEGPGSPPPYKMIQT

T2: human PTK7 on human cancer cell lines (human, UniProt Q13308 31-1070)
T2 construct: Endogenous PTK7 of human tumour cell lines; also called PTK7 on A-431, NCI-H520, NCI-N87, SK-OV-3, BT-20, HCC1954, NCI-H226, NCI-H358, HCT116, PC-3, NCI-H292, NCI-H1975 cells
T2 sequence: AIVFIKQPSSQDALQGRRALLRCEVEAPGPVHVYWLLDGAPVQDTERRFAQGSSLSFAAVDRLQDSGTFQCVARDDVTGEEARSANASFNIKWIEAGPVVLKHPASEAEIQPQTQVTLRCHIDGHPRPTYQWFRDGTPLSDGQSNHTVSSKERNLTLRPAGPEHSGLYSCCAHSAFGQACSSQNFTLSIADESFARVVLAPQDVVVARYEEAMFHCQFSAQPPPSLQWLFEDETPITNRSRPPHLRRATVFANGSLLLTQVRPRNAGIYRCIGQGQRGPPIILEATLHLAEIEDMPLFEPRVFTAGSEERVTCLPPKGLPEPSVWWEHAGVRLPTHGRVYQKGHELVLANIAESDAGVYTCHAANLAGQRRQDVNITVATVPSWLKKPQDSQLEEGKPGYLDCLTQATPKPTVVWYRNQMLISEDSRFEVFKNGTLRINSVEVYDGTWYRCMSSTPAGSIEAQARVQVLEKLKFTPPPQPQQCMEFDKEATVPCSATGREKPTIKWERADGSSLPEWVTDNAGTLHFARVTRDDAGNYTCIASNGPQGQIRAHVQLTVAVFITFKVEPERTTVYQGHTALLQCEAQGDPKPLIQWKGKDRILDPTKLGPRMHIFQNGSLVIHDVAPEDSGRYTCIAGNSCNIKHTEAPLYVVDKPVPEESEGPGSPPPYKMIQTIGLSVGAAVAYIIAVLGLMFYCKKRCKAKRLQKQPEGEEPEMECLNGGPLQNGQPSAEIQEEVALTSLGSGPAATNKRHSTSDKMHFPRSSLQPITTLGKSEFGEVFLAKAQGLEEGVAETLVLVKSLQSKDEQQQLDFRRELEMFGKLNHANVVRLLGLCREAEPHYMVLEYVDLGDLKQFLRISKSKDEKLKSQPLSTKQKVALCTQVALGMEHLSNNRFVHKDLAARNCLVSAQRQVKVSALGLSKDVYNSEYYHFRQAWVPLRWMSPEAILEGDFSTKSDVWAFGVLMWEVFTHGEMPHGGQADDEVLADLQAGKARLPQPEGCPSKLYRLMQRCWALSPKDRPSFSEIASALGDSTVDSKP

B1: 1F2 (antibody, V domains shown)
VH: QVQLVQSGGGLVQPGGSLRLSCAASGFTFSRYEMNWVRQAPGKGLEWVSYINSIGSAINYADSVKGRFTISRDNAKNSLYLQMRSLRAEDTAVYYCVREDNWNPGYWGQGTLVTVSS
VL: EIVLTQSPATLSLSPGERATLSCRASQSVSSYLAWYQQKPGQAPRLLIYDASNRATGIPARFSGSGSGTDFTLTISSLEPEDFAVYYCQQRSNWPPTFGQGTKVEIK
notes: also called anti-PTK7 antibody 1F2
B2: 1A7 (antibody, human IgG1, V domains shown)
VH: QVQLVESGGGVVQPGRSLRLSCAASGFTFSNYGMHWVRQAPGKGLEWVAVIYYDGSNKFYADSVKGRFTISRDNSKNTLYLQMSSLRAEDTAVYYCARDVAPPGSRAEYFHHWGQGTLVTVSS
VL: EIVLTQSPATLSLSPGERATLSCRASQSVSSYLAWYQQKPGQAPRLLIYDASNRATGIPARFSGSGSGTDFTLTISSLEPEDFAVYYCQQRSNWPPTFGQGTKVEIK
notes: also called anti-PTK7 antibody 1A7
B3: 2D11 (antibody, V domains shown)
VH: B2 VH with N31S, Y52F, F59Y, S84N, A92S, P102A, H111Q, H112N
VL: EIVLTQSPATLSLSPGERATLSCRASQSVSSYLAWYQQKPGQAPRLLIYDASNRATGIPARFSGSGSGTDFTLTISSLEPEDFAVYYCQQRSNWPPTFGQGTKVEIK
notes: also called anti-PTK7 antibody 2D11
B4: 2A5 (antibody, V domains shown)
VH: B2 VH with E6Q, Y52W, S56R, F59Y, S84N, P103A, H111Q, H112N
VL: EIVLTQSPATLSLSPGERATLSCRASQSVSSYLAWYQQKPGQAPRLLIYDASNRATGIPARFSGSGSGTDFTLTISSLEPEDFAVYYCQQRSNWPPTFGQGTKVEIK
notes: also called anti-PTK7 antibody 2A5
B5: 2F5 (antibody, V domains shown)
VH: B2 VH with A23V, V50I, F59Y, S84N, P102A, P103A, F110L
VL: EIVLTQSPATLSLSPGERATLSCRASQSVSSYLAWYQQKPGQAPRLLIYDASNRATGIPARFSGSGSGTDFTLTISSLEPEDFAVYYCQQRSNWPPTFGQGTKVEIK
notes: also called anti-PTK7 antibody 2F5
B6: 1A11 (antibody, V domains shown)
VH: QVQLVQSGPGLVKPSETLSLTCTVSGGSINSYYWNWIRQPPGKGLEWIGYIYYSGSTNYNPSLKSRVTISVDTSKNQFSLKLSSVTAADTAVYYCARDPHDYIRGHFDLWGRGTLFTVSS
VL: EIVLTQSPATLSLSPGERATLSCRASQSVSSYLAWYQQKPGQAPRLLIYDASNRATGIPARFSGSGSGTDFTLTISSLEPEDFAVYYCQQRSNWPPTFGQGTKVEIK
notes: also called anti-PTK7 antibody 1A11
B7: 3C4 (antibody, V domains shown)
VH: QVQLEQSRAEVKKPGESLRISCKGSGYSFTSYWISWVRQMPGKGLEWMGRIDPSDSYTNYNPSFQGHVTISADKSISTAYLQWSSLKASDTAMYYCARRDGSYFDFDYWGQGTLVTVSS
VL: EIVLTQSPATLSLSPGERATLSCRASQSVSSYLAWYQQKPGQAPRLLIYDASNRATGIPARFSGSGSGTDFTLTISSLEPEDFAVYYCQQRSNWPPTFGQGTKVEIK
notes: also called anti-PTK7 antibody 3C4
B8: 3E6 (antibody, V domains shown)
VH: B7 VH with E5V, Q6E, R8G, K23R, N59K, N61S, S102D
VL: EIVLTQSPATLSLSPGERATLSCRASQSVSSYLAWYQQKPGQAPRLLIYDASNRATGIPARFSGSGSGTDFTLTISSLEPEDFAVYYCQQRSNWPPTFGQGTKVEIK
notes: also called anti-PTK7 antibody 3E6

What follows are binders tested against T1, His-tagged human PTK7 protein (assay: BLI Octet binning on hPTK7-His; competitor 2F5).
Method: (§1) Relative positions of target protein epitope between a pair of purified anti-PTK7 antibodies were analyzed by Biolayer Interferometry (BLI) using ForteBio Octet system at 30° C. A total of […] purified antibodies were used: 1A7, 1A11, 1F2, 2A5, 2D11, 2F5, 3C4 and 3E6.
(§2) 1×HBS-EP+ buffer (10 mM 4-(2-hydroxyethyl)-1-piperazineethanesulfonic acid (HEPES), 150 mM NaCl, 3 mM ethylenediaminetetraacetic acid (EDTA) and 0.05% P20, pH7.4) diluted from HBS-EP+ buffer (10×) was used as the running buffer throughout the experiment. His-tagged human PTK7 protein was captured at a flow rate of 10 μL/min, and 200 nM of antibody (Analyte 1) was injected at a flow rate of 30 μL/min to bind the ligand. Another antibody (Analyte 2) was injected under the same conditions to determine whether the binding of different antibodies interfered with each other. The binding time was 300 s for each antibody.
(§3) The binding value of each antibody was obtained using Data Analysis HT 12.0. To quantify the interference of one antibody binding to another, a binding ratio was calculated to compare each pair of antibodies. The binding ratio is defined as the binding value of the second antibody (Analyte 2), divided by the binding value of the first antibody (Analyte 1). […] In general, antibody pairs that interfere with each other have the same or overlapping epitopes.
B1 gave a binding ratio of 0.56. B2 gave a binding ratio of 0.07. With B3 the binding ratio was 0.14. B4 showed a binding ratio of -0.02. B5 showed a binding ratio of 0.08. In the case of B6, the binding ratio is reported as 0.67. Binder B7 has a binding ratio of 0.86. With B8 the binding ratio was 0.71.

What follows are binders tested against T1, His-tagged human PTK7 protein (assay: BLI Octet binning on hPTK7-His; competitor 3C4).
Method: as §1, §2, §3
Work on B1 yielded a binding ratio of 0.48. For B2, the binding ratio was 0.66. For B3, the binding ratio was 0.81. Work on B4 yielded a binding ratio of 0.62. B5 showed a binding ratio of 0.71. In the case of B6, the binding ratio is reported as 0.67. B7 gave a binding ratio of 0.16. For B8, the binding ratio was 0.11.

What follows are binders tested against T2, human PTK7 on human cancer cell lines (assay: flow cytometry, SK-OV-3 cells, Ab 5 ug/mL).
Method: The binding activity of anti-PTK7 antibodies to cancer cell lines was verified by flow cytometry. […] Purified anti-PTK7 antibody with a concentration of 5 μg/mL was added to each well and was incubated at 4° C. for 30 minutes. […] The cells were collected, and the mean fluorescence intensity (MFI) was determined. Human IgG1 was used as ISO control.
In the case of B1, the MFI is reported as 210000. Work on B2 yielded an MFI of 197000. B3 was tested, and the MFI was 371000. Work on B4 yielded an MFI of 283000. Binder B5 has an MFI of 178000. B6 showed an MFI of 319000. B7 gave an MFI of 304000. For B8, the MFI was 373000.

The binders below were run against T1, His-tagged human PTK7 protein (assay: BLI Octet binning on hPTK7-His; competitor 3E6).
Method: as §1, §2, §3
With B1 the binding ratio was 0.75. Binder B2 has a binding ratio of 1.05. Binder B3 has a binding ratio of 1.18. In the case of B4, the binding ratio is reported as 0.94. For B5, the binding ratio was 1.02. B6 showed a binding ratio of 0.94. In the case of B7, the binding ratio is reported as 0.17. B8 gave a binding ratio of 0.08.
